From the DeepSol protein solubility set

Test: soluble on expression in E. coli; label from the status in PepcDB or PDB records

Sequence | soluble on expression in E. coli
MAHHHHHHMDSPTEFSCGTQWDDDRRGEEPLLPELTLHGCGLRNLSLIVRGAQGAVYSAHDENGNRFAVKRLFTQRSDFGIRGVSEGALREATLLTLVRQEMEKLVHDTAFDVVRLQGVVEAPYKELCLILEYCSLDLSQVVVKSKRHTRSFPLVAEGPQVRCPVLSNMGVVRYLLRGILQILNNLHVNCRIIHRDVKLSNFLVRGDGSVRLSDFGSARLLHETVEEKEAAECVTSDPQDEDEVDCSDPFSHSCEGYTPAAQRTTLIYQAPECLLGERTYTTAVDVWAVGIVFAEILLQRHLFRSVNELTLISDIWRLLGTPSTKGEDPNIQGTNGVTFAAPTEPTVDVKFNDDIVSPEGRDLLKKMLEVDPKKRVTAADALRHSFLTSVDAQLSLKEAPALWREKVKECLEGGTQAVPMGAPFLALDDDEEEEEEEEDVDMNMATL | not soluble
MAHHHHHHMELLNQENDGFLEDMSDSINKQIKELENVPSKDIIRNIWFKVHCNERNKFHSLIYSIRKIHDKYFSDTNKNEELGKKVWNKCCAIITEELLKLDSIQNSQFHNLMQQETVTLQEFEDFVKFSVNGYKNTKKETKKICIKKLKKALNQRL | soluble
MAHHHHHHMENIKLGFMGLGQMGSALAHGIANANIIKKENLFYYGPSKKNTTLNYMSSNEELARHCDIIVCAVKPDIAGSVLNNIKPYLSSKLLISICGGLNIGKLEEMVGSENKIVWVMPNTPCLVGEGSFIYCSNKNVNSTDKKYVNDIFNSCGIIHEIKEKDMDIATAISGCGPAYVYLFIESLIDAGVKNGLSRELSKNLVLQTIKGSVEMVKKSDQPVQQLKDNIVSPGGITAVGLYSLEKNSFKYTVMNAVEAACEKSKAMGSK | soluble
MAHHHHHHMEQQVIAVHYQRMEEWLSDRKAVLGKKHKKEFFRLMELAPKLEQLVRYEIPAQHKQNKRLSGLLDDAYGSIEDAAKARKNLEERQKRFFQEYGLVESQGAEEEDLEAVIEAKIASSTTSLNEALREFGRSPHLESFREAYVRAAKMYSMGMYDDNVFSLHLPWLDRVYQERFYKSKVDIHHHEQHQKQRAGERDQVAVKASTGPCNIDWGDEDTVDLVDVGETVEIKWDEEALEVAVEGAVRNCSENNKRMDDGCEEKPTDTVKGIFTIDVSNAAHRKNILTELQAFACFASERSSMDDESLAEPAAAVEVLVKKLTASTEAVFVRMKTTPTLRFSFMEEVRRLQRGIAAASMRKSNSQARVHQIQEEIERLGPQLDALLIAAGNCRDECLAELLKMFPGRTVTIVGDINKYL | not soluble
MAHHHHHHMERYESIAERAGFARSQVLPRGSGGSSSASVCYENAANYLQHARGADYATASCSVPVDIWDALCQGEASVLRVGQLGEGRQRLIAYESCTTSSHSGDLSSRLASLEKSLDKLLSEFPKTAEELVTLDYNASLCSAAARSVLTAVPSFLSISGLLRTINNKLCSLDGFSREVLPLMRCDDDVSRQCLLVAGRLDTLEEKLRTTEALVAALGHTSAASNAIFERIGARYGETTRAATM | not soluble
MAHHHHHHMESKICDPIGLDKNKFRKVEEENEENSKIVENGQMTYNDDLEMFTTIQLNQEIDIRKNPFPLHMINQKNDIPLCAQEFSKLTDPLYIKKICLEKVHDWSRCNEDDVCVNQILSGLTNQLFEVSIKEDTAIEYRITRRHVLFRIYGKDVDALYNPLSEFEVYKTMSKYRIAPLLLNTFDGGRIEEWLYGDPLSIDDLKNKSILVGIANVLGKFHTLSRKRHLPEHWDKTPCVFKMMDRWRLAVSNYKNLDKVTLDINKYIQESHKFLKFIKIYTQIENIANDIVFCHNDLQENNIMNTNKCLRLIDFEYSGYNFLSADIANFFIETTIDYSYNAYPFFIINKKNYISYESRILFVTTYLSKYLDDSTAASDQDIIDQFLEAIEVQALGLHLIWAFWSIIRGYQTKSYNEFDFFLYAKERLKMYDEQKQYLMSKNIIKDYDD | soluble
MAHHHHHHMFRSASCILLAAKTIPINPQKPFKLHTAGRDDVPPVPTTATYDTEQMKKCLEMMFRIRRMESLCDQSYKLKKIRGFCHLYIGQEAIPVGMENVLTLEDLIVTAYRDHAWYIVRGGTPGEVFAEMFGKEGGCSKGKGGSMHMYSVKNNFFGGNGIVGAQVPIGAGLGWRFALENRDKPRNVAVTFYGDGAANQGQVFEAMNIAAIHRIPVIFCCENNQFGMGTSKERAAYQPEMYRRGDYIPGLQVDGMDVLAVQEGTRWAKEWCLSGKGPIVLEFDSYRYVGHSMSDPDSQYRKKSDIQDVRKTRDCIHKMKDFMLEEGIMTDEEMKKLEKDVKKEVDQQLQPAEKQKPTPRSELFTDIYVGEQYEHRTTQGTVYAKP | not soluble
MAHHHHHHMFSESDRRVRYTKGIGPQEASKEGGLLGDEGGKTWRMPKDKPQQNPASVDDNRIDDSIARGDGDNARDSGDGPGDNFLFTPTAARVDVHPLVLLSLVDHYARVNTKVTQKRRVAGLLLGRYKRLPDGTQLLDINNSFAVPFDEDPHNSDVWFVDTNYADEMFHMFRRVLPRVQVVGWYSAGPSFSVQPNDMLLHLLVADRFTANPVYCIVNTDPGNKGVPVLAYTTVQGREGVRSLEFRNIPTHLGAEEAEEIGIEHLLRDLTDSTITTLSTQIQERELSLAHLSCVLQSIEDYLQDVAEGLMPISEDVLSVLQELISLQPHIYHLKRSTEMIRHSNDQAIAMFIAAIGRCVGALYDVIANRRRINSEMVEVRARREQALKEKLEHEQHKAKEVVTTEKDENNNAK | not soluble
MAHHHHHHMGDFALISMNGDRVFISLDPVFTSQSLWLQAAEGLGEREGVVPIASTETLHNLVEYMAFQAKRMAGVAEGECKGGQTVTLPISCTTCSGSGGLGYDVHSLLPDHDIAFLDRFGGTGGVWEVEQQEKLMELMATADFVGHGRLSRLCAVYISCRLMSATESDILSWFSVCGDRCGGVASADPEADDGNRAGERVLRDAERLRILNQMRKYIEIED | not soluble
MAHHHHHHMGSLVMGRCRRGAEETFEFREEYALLDAPIANAEHIPLRLRPQERKIQRLMRGVILASSYTDKVDSASALKLKNRELLVVKELTNALTGLIVGLDMRKAASFMRDHEFTPYQHEIRAAIEMCRRYKMMNPDLLRTDYVKFLYMIQDAVQSDMAREALGFNVVKELVTVGRYCETHNMQDILQDTRLPHCITPVPVMKDRNMLNRCLRGKDAVVGKLVKQYASEHRMHEDNVEVVVRSLNDANCFSNDNVETSERLLELLKQYFTPISCTELTSLAIDEGADGSRLTHNHKMQYIFVLQSLSLWKNMCRKMYMLWSLAEEDMLNPNEKYELRMTGQGLQRVQKAPQLFKAIQQVLQETKEELGEWVGSERIHLGDDQVPNAFHFIDKYGQVSRIIIPILRTLGHIDQLERHADHAAYLREVWGGGEQAKRAILRDFFRHGFDGSGGDNMDDAGSCIDGRLTSAWNWCNNIRFKEFYPLFLFSGFSSFDGDMGL | soluble
MAHHHHHHMGTLEAQTQGPGSMDFRIGQGYDVHQLVPGRPLIIGGVTIPYERGLLGHSDADVLLHAITDALFGAAALGDIGRHFSDTDPRFKGADSRALLRECASRVAQAGFAIRNVDSTIIAQAPKLAPHIDAMRANIAADLDLPLDRVNVKAKTNEKLGYLGRGEGIEAQAAALVVREAAA | soluble
MAHHHHHHMGTLEAQTQGPGSMDKTLDKQVAIVTGASRGIGRAIALELARRGAMVIGTATTEAGAEGIGAAFKQAGLEGRGAVLNVNDATAVDALVESTLKEFGALNVLVNNAGITQDQLAMRMKDDEWDAVIDTNLKAVFRLSRAVLRPMMKARGGRIVNITSVVGSAGNPGQVNYAAAKAGVAGMTRALAREIGSRGITVNCVAPGFIDTDMTKGLPQEQQTALKTQIPLGRLGSPEDIAHAVAFLASPQAGYITGTTLHVNGGMFMS | soluble
MAHHHHHHMGTLEAQTQGPGSMGSLSTSISSITTNTTNLGNSTAAALGGGATYDPATGAISAPSYTTYNANGTTATNTSVGAAIDNINANGIKYFHANSTDPDSVATGTNSVAIGPNAVANVDYSVAIGSGATTSAAVPVASASVGGLTFGGFAGSAPIGVFSVGAPGAERQITNVAAGRISAASTDAVNGSQLYATNSN | soluble
